Bounds are passed on as bounds.

The target in this assay is full-length human presenilin 2 (PS2) expressed in HeLa cells (human) (UniProt P49810). Briefly: cell-based or functional assay.
“calmyrin-EF-C mutant (E172Q) (from UniProt Q99828 2-191)” came in with a cell death (floating HeLa cells), fold, on coexpression with PS2 of 1.05 fold.
In the case of “calmyrin-MYR mutant (G2A, myristoylation-deficient calmyrin) (from UniProt Q99828 3-191)”, the cell death (floating HeLa cells), fold, on coexpression with PS2 was below 2.09 fold.
The same measure for “calmyrin-EF-N mutant (D127N) (from UniProt Q99828 2-191)”: 1 fold.

For the origin of these results see patent US20020064828A1.
